Source: publication PMC4207562, “Study of the Structure-Function-Stability Relationships in Yeast D-amino Acid Oxidase: Hydrophobization of Alpha-Helices” (Acta Naturae, 2014)

Assays:
Settings in all cases: 50 mM potassium phosphate pH 8.0, 30 °C, air-saturated
[1] = substrate: CSCC[C@@H](N)C(=O)O; assay: peroxidase/ABTS coupled assay, A414; assay type: biochemical, Trigonopsis variabilis
Excerpt: (§1) peroxidase/ABTS coupled assay, A414 on TvDAAO

[2] = substrate: N[C@H](Cc1c[nH]c2ccccc12)C(=O)O; assay: peroxidase/ABTS coupled assay, A414; assay type: biochemical, Trigonopsis variabilis
Excerpt: as §1

[3] = substrate: NC(=O)C[C@@H](N)C(=O)O; assay: peroxidase/ABTS coupled assay, A414; assay type: biochemical, Trigonopsis variabilis
Excerpt: as §1

[4] = substrate: NCCCC[C@@H](N)C(=O)O; assay: peroxidase/ABTS coupled assay, A414; assay type: biochemical, Trigonopsis variabilis
Excerpt: as §1

[5] = substrate: N[C@H](Cc1ccc(O)cc1)C(=O)O; assay: peroxidase/ABTS coupled assay, A414; assay type: biochemical, Trigonopsis variabilis
Excerpt: as §1

[6] = substrate: C[C@@H](N)C(=O)O; assay: purified protein
[7] = substrate: C[C@H](O)[C@@H](N)C(=O)O; assay: purified protein
[8] = substrate: N[C@H](CO)C(=O)O; assay: purified protein
[9] = substrate: N[C@H](Cc1ccccc1)C(=O)O; assay: purified protein
[10] = substrate: CC(C)C[C@@H](N)C(=O)O; assay: purified protein
[11] = substrate: CC(C)[C@@H](N)C(=O)O; assay: purified protein

B1: TvDAAO (Trigonopsis variabilis) (protein)
chain: MAKIVVIGAGVAGLTTALQLLRKGHEVTIVSEFTPGDLSIGYTSPWAGANWLTFYDGGKLADYDAVSYPILRELARSSPEAGIRLISQRSHVLKRDLPKLEVAMSAICQRNPWFKNTVDSFEIIEDRSRIVHDDVAYLVEFRSVCIHTGVYLNWLMSQCLSLGATVVKRRVNHIKDANLLHSSGSRPDVIVNCSGLFARFLGGVEDKKMYPIRGQVVLVRNSLPFMASFSSTPEKENEDEALYIMTRFDGTSIIGGCFQPNNWSSEPDPSLTHRILSRALDRFPELTKDGPLDIVRECVGHRPGREGGPRVELEKIPGVGFVVHNYGAAGAGYQSSYGMADEAVSYVERALTRPNL
notes: recombinant tvdaao gene in pET-33b(+) based plasmid, E. coli BL21(DE3) CodonPlus/pLysS; MonoQ purified; FAD homodimer; no tag stated
Q: With B1 as the protein, how does the Km [1] read?
A: 460 ± 30 µM

Q: What about the kcat [1] of the same protein?
A: 80.5 ± 0.8 s⁻¹

Q: What about the kcat/Km [1] of the same protein?
A: 175000 M⁻¹ s⁻¹

Q: And the Km [2]?
A: 490 ± 40 µM

Q: And the kcat [2]?
A: 42.4 ± 1.4 s⁻¹

Q: And the kcat/Km [2]?
A: 86500 M⁻¹ s⁻¹

Q: And the Km [3]?
A: 22600 ± 1500 µM

Q: And the kcat [3]?
A: 62.4 ± 2 s⁻¹

Q: What about the kcat/Km [3] of the same protein?
A: 2800 M⁻¹ s⁻¹

Q: And the Km [4]?
A: 29300 ± 3400 µM

Q: What about the kcat [4] of the same protein?
A: 3.54 ± 0.21 s⁻¹

Q: And the kcat/Km [4]?
A: 120 M⁻¹ s⁻¹

Q: What about the Km [5] of the same protein?
A: 450 ± 60 µM

Q: What about the kcat [5] of the same protein?
A: 22.5 ± 1.9 s⁻¹

Q: What about the kcat/Km [5] of the same protein?
A: 50000 M⁻¹ s⁻¹

Q: And the Km [6]?
A: 16700 ± 700 µM

Q: And the kcat [6]?
A: 109 s⁻¹

Q: And the kcat/Km [6]?
A: 6500 M⁻¹ s⁻¹

Q: What about the Km [7] of the same protein?
A: 11100 ± 800 µM

Q: What about the kcat [7] of the same protein?
A: 1.75 s⁻¹

Q: And the kcat/Km [7]?
A: 160 M⁻¹ s⁻¹

Q: And the Km [8]?
A: 36600 ± 3300 µM

Q: And the kcat [8]?
A: 20.5 s⁻¹

Q: And the kcat/Km [8]?
A: 560 M⁻¹ s⁻¹

Q: And the Km [9]?
A: 370 ± 40 µM

Q: What about the kcat [9] of the same protein?
A: 27.2 s⁻¹

Q: What about the kcat/Km [9] of the same protein?
A: 73900 M⁻¹ s⁻¹

Q: And the Km [10]?
A: 780 ± 20 µM

Q: And the kcat [10]?
A: 29.1 s⁻¹

Q: What about the kcat/Km [10] of the same protein?
A: 37300 M⁻¹ s⁻¹

Q: And the Km [11]?
A: 14400 ± 1200 µM

Q: And the kcat [11]?
A: 85.3 s⁻¹

Q: What about the kcat/Km [11] of the same protein?
A: 5900 M⁻¹ s⁻¹

B2: TvDAAO (Trigonopsis variabilis; S67A) (protein)
chain: MAKIVVIGAGVAGLTTALQLLRKGHEVTIVSEFTPGDLSIGYTSPWAGANWLTFYDGGKLADYDAVAYPILRELARSSPEAGIRLISQRSHVLKRDLPKLEVAMSAICQRNPWFKNTVDSFEIIEDRSRIVHDDVAYLVEFRSVCIHTGVYLNWLMSQCLSLGATVVKRRVNHIKDANLLHSSGSRPDVIVNCSGLFARFLGGVEDKKMYPIRGQVVLVRNSLPFMASFSSTPEKENEDEALYIMTRFDGTSIIGGCFQPNNWSSEPDPSLTHRILSRALDRFPELTKDGPLDIVRECVGHRPGREGGPRVELEKIPGVGFVVHNYGAAGAGYQSSYGMADEAVSYVERALTRPNL
notes: as for B1
Q: With B2 as the protein, how does the Km [1] read?
A: 1350 ± 40 µM

Q: And the kcat [1]?
A: 104 ± 3 s⁻¹

Q: And the kcat/Km [1]?
A: 77400 M⁻¹ s⁻¹

Q: What about the Km [10] of the same protein?
A: 340 ± 20 µM

Q: And the kcat [10]?
A: 31.4 s⁻¹

Q: What about the kcat/Km [10] of the same protein?
A: 93100 M⁻¹ s⁻¹

B3: TvDAAO (Trigonopsis variabilis; S77A) (protein)
chain: MAKIVVIGAGVAGLTTALQLLRKGHEVTIVSEFTPGDLSIGYTSPWAGANWLTFYDGGKLADYDAVSYPILRELARASPEAGIRLISQRSHVLKRDLPKLEVAMSAICQRNPWFKNTVDSFEIIEDRSRIVHDDVAYLVEFRSVCIHTGVYLNWLMSQCLSLGATVVKRRVNHIKDANLLHSSGSRPDVIVNCSGLFARFLGGVEDKKMYPIRGQVVLVRNSLPFMASFSSTPEKENEDEALYIMTRFDGTSIIGGCFQPNNWSSEPDPSLTHRILSRALDRFPELTKDGPLDIVRECVGHRPGREGGPRVELEKIPGVGFVVHNYGAAGAGYQSSYGMADEAVSYVERALTRPNL
notes: as for B1
Q: What does the source list for B3?
A: Km [3]: 4700 ± 700 µM; kcat [3]: 17.2 ± 1 s⁻¹; kcat/Km [3]: 3700 M⁻¹ s⁻¹; Km [5]: 6500 ± 700 µM; kcat [5]: 12.4 ± 0.8 s⁻¹; kcat/Km [5]: 1900 M⁻¹ s⁻¹

B4: TvDAAO (Trigonopsis variabilis; S336A) (protein)
chain: MAKIVVIGAGVAGLTTALQLLRKGHEVTIVSEFTPGDLSIGYTSPWAGANWLTFYDGGKLADYDAVSYPILRELARSSPEAGIRLISQRSHVLKRDLPKLEVAMSAICQRNPWFKNTVDSFEIIEDRSRIVHDDVAYLVEFRSVCIHTGVYLNWLMSQCLSLGATVVKRRVNHIKDANLLHSSGSRPDVIVNCSGLFARFLGGVEDKKMYPIRGQVVLVRNSLPFMASFSSTPEKENEDEALYIMTRFDGTSIIGGCFQPNNWSSEPDPSLTHRILSRALDRFPELTKDGPLDIVRECVGHRPGREGGPRVELEKIPGVGFVVHNYGAAGAGYQSAYGMADEAVSYVERALTRPNL
Q: With B4 as the protein, how does the Km [10] read?
A: 70 ± 10 µM

Q: What about the kcat [10] of the same protein?
A: 5 s⁻¹

Q: And the kcat/Km [10]?
A: 76400 M⁻¹ s⁻¹

B5: TvDAAO (Trigonopsis variabilis; S277A) (protein)
chain: MAKIVVIGAGVAGLTTALQLLRKGHEVTIVSEFTPGDLSIGYTSPWAGANWLTFYDGGKLADYDAVSYPILRELARSSPEAGIRLISQRSHVLKRDLPKLEVAMSAICQRNPWFKNTVDSFEIIEDRSRIVHDDVAYLVEFRSVCIHTGVYLNWLMSQCLSLGATVVKRRVNHIKDANLLHSSGSRPDVIVNCSGLFARFLGGVEDKKMYPIRGQVVLVRNSLPFMASFSSTPEKENEDEALYIMTRFDGTSIIGGCFQPNNWSSEPDPSLTHRILARALDRFPELTKDGPLDIVRECVGHRPGREGGPRVELEKIPGVGFVVHNYGAAGAGYQSSYGMADEAVSYVERALTRPNL
Q: What does the source list for B5?
A: Km [10]: 150 ± 20 µM; kcat [10]: 12 s⁻¹; kcat/Km [10]: 80000 M⁻¹ s⁻¹

B6: TvDAAO (Trigonopsis variabilis; S105A) (protein)
chain: MAKIVVIGAGVAGLTTALQLLRKGHEVTIVSEFTPGDLSIGYTSPWAGANWLTFYDGGKLADYDAVSYPILRELARSSPEAGIRLISQRSHVLKRDLPKLEVAMAAICQRNPWFKNTVDSFEIIEDRSRIVHDDVAYLVEFRSVCIHTGVYLNWLMSQCLSLGATVVKRRVNHIKDANLLHSSGSRPDVIVNCSGLFARFLGGVEDKKMYPIRGQVVLVRNSLPFMASFSSTPEKENEDEALYIMTRFDGTSIIGGCFQPNNWSSEPDPSLTHRILSRALDRFPELTKDGPLDIVRECVGHRPGREGGPRVELEKIPGVGFVVHNYGAAGAGYQSSYGMADEAVSYVERALTRPNL
Q: Which Km [9] does the source give for B6 here?
A: 260 ± 20 µM

Q: And the kcat [9]?
A: 32.3 s⁻¹

Q: And the kcat/Km [9]?
A: 124000 M⁻¹ s⁻¹

Q: And the Km [10]?
A: 280 ± 20 µM

Q: What about the kcat [10] of the same protein?
A: 30.4 s⁻¹

Q: And the kcat/Km [10]?
A: 110000 M⁻¹ s⁻¹

B7: TvDAAO (Trigonopsis variabilis; S335A) (protein)
chain: MAKIVVIGAGVAGLTTALQLLRKGHEVTIVSEFTPGDLSIGYTSPWAGANWLTFYDGGKLADYDAVSYPILRELARSSPEAGIRLISQRSHVLKRDLPKLEVAMSAICQRNPWFKNTVDSFEIIEDRSRIVHDDVAYLVEFRSVCIHTGVYLNWLMSQCLSLGATVVKRRVNHIKDANLLHSSGSRPDVIVNCSGLFARFLGGVEDKKMYPIRGQVVLVRNSLPFMASFSSTPEKENEDEALYIMTRFDGTSIIGGCFQPNNWSSEPDPSLTHRILSRALDRFPELTKDGPLDIVRECVGHRPGREGGPRVELEKIPGVGFVVHNYGAAGAGYQASYGMADEAVSYVERALTRPNL
notes: as for B1
Q: How did the Km [1] turn out when B7 was run?
A: 4600 ± 200 µM

Q: And the kcat [1]?
A: 45.9 ± 1.1 s⁻¹

Q: What about the kcat/Km [1] of the same protein?
A: 9900 M⁻¹ s⁻¹
